Source: PMC10859935, “Surface Charge Can Modulate Phase Separation of Multidomain Proteins” (Journal of the American Chemical Society, 2024)

Legend:
[1] = biological target: polySIM (protein consisting of 10 SIMs derived from the PIASx protein)
[2] = biological target: small ubiquitin-like modifier protein 1 (SUMO1) domain, wild type (UniProt P63165); assay: static light scattering (second virial coefficient A2); pH 8.0; 25 °C; 20 mM HEPES, 150 mM KCl, 1 mM MgCl2, 1 mM DTT, 1 mM EGTA; A2 from the slope of scattering intensity versus concentration
[3] = biological target: small ubiquitin-like modifier protein 1 (SUMO1) domain, wild type (UniProt P63165); assay: static light scattering (second virial coefficient A2); pH 6.5; 25 °C; A2 from the slope of scattering intensity versus mass concentration; weak self-association of a single domain
[4] = biological target: T1, small ubiquitin-like modifier protein 1 (SUMO1) domain, wild type (UniProt P63165 1-97); assay: ITC; 50–100 μM SIM peptide in the cell, SUMO in the syringe; 25 °C; 20 mM HEPES (pH 7.0 or 8.0) or 20 mM MES (pH 6.5), 150 mM KCl, 1 mM MgCl2, 1 mM DTT, 1 mM EGTA; 1:1 binding model; conditions: both partners purified
T1 construct: SUMO1, single domain; also called WT SUMO; WT SUMO1; source: BL21(DE3) T1R cells, purified (Ni-NTA, TEV cleavage, Source15Q, Superdex200); not shown: His8, N-terminal, cleaved
T1 sequence (P63165 1-97): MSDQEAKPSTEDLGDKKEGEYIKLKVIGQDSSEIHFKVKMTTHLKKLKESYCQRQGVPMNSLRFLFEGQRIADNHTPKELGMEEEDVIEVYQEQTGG

polySUMO (synthetic protein consisting of five SUMO domains)
phase-separation threshold (module concentration, equimolar modules) by turbidity at 340 nm, pH 6 [1]: 75 μM
phase-separation threshold (module concentration, equimolar modules) by turbidity at 340 nm, pH 6.5 [1]: 100 μM
phase-separation threshold (module concentration, equimolar modules) by turbidity at 340 nm, pH 7 [1]: 150 μM
phase-separation threshold (module concentration, equimolar modules) by turbidity at 340 nm, pH 8 [1]: 300 μM

small ubiquitin-like modifier protein 1 (SUMO1) domain, wild type (from UniProt P63165 1-97) (natural protein)
A2 (second virial coefficient) [2]: 0.00012 mol mL g^–2
A2 (second virial coefficient) [3]: -0.00012 mol mL g^–2

KVDVIDLTIESSSDEEEDPPAKR [SUMO interaction motif (SIM) peptide derived from the PIASx protein]
Kd [4]: 15 to 20 µM
